In test [1] the target is T1, human IL-11 (human, UniProt P20809 22-199).
T1 construct: Invigate, e.g. lot #C121021-19; biotinylated where coated in the ELISA; also called hIL-11; hIL11
T1 sequence: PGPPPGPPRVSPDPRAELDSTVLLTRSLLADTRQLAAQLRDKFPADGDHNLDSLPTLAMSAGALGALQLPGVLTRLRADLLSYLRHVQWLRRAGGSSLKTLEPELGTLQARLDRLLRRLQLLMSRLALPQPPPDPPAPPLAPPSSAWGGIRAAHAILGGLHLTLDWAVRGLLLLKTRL
As to the kind of experiment: Di-complex ELISA, competitor canine IL11RA-Fc on coated IL-11; Di-complex ELISA (blocking of IL-11/IL-11Ra), weak partial inhibition, efficacy 17.4%. How it is done:
The assay is performed using streptavidin coated microtiter plates (Greiner bio-one, #781997). In a first step, 10 nM biotinylated mouse IL-11 (Invigate, Germany, e.g., lot #C210819-09) or human IL-11 (Invigate, Germany, e.g., lot #C121021-19) is coated in 25 μl PBS on the plate at 4° C. overnight. Next day, the plate is washed three times with 50 μl PBST and then blocked with 50 μl SmartBlock (Candor, #113125) for one hour at room temperature (RT). After additional three washes with PBST, 25 μl of a mixture of the murine anti IL-11 antibody and recombinant canine IL11RA-Fc fusion protein (Sino Biological, #70078-D02H) in PBS-T, 10% Smartblock are added simultaneously to the plate and incubated for one hour at RT. […] After three additional washes with PBS-T, 25 μl anti-human-POD (Sigma, #A0170) in PBS-T, 10% Smartblock is added and incubated for 1 hour at RT. After a final three washes with PBS-T, 25 μl AmplexRed (Fisher Scientific, A12222), 1/1000 in PBS, 0,003% H₂O₂, is added as substrate and incubated for 15 min at RT in the dark. Then, the fluorescence is measured with a plate reader at 535/595 nm. […] Efficacy was calculated as [(signal measured at lowest antibody concentration−signal measured at the highest antibody concentration)×100] divided by (signal measured at lowest antibody concentration−signal measured in the absence of IL11Ra). […]
A general note: In an ELISA, binding on a coated surface is turned into a signal by an enzyme label.

Test [2] concerns the target T2, human IL-11 (human, UniProt P20809 22-199).
T2 construct: Invigate recombinant protein; biotinylated when immobilized in the Di-complex ELISA; also called hIL11; hIL-11
T2 sequence: T1 sequence
The experiment in a line: Tri-complex ELISA, hIL-11 + mIL-11Ra-Fc + hgp130-Fc, inhibition of complex formation; Tri-complex ELISA (IL-11/IL-11Ra/gp130 formation). How it is done:
In the Tri-complex ELISA format IL-11 antibodies are tested for their ability to inhibit the formation of a complex consisting of murine or human gp130-Fc fusion protein, with murine or human IL-11, and a murine IL11RA-Fc fusion protein. The assay format was adapted according to FIG. 18 (a, b), depending on whether murine or human IL-11 IgG antibodies were tested.
The assay was performed using High Binding microtiter plates (Greiner, #781077). In a first step, 25 μl of goat anti human IgG (Sigma, #12136), diluted 1:1000 in coating buffer (Candor, #121125) was coated on the plate at 4° C. overnight. Next day, the plate was washed one time with 50 μl PBST and then blocked with 50 μl SmartBlock (Candor, #113125) for one hour at room temperature (RT). […] After three additional washes of the coated and blocked microtiter plate with PBS-T, 25 μl of each mixture were added and the assay plate was incubated for one hour at room temperature. After three additional washes, anti-mouse-gp130 biotinylated antibody (R&D, #BAF468) or anti-human gp130 biotinylated antibody (R&D, #BAF228), both 1:1000 in 10% SmartBlock PBS-T, was added and incubated for 1 hour at RT. After three additional washes, a Streptavidin-Peroxidase conjugate (Sigma, #S5512) 1:1000 in SmartBlock PBS-T was added and incubated for one hour at room temperature. […] Then, the fluorescence was measured with a plate reader at 535/595 nm. […]

The target in test [3] is T2, human IL-11. The experiment in a line: Tri-complex ELISA, hIL-11 + mIL-11Ra-Fc + hgp130-Fc, inhibition of complex formation; Tri-complex ELISA (IL-11/IL-11Ra/gp130 formation), efficacy only 25%. How it is done:
In a first step, 25 μl of goat anti human IgG (Sigma, #12136), diluted 1:1000 in coating buffer (Candor, #121125) was coated on the plate at 4° C. overnight. Next day, the plate was washed one time with 50 μl PBST and then blocked with 50 μl SmartBlock (Candor, #113125) for one hour at room temperature (RT). […] After three additional washes of the coated and blocked microtiter plate with PBS-T, 25 μl of each mixture were added and the assay plate was incubated for one hour at room temperature. After three additional washes, anti-mouse-gp130 biotinylated antibody (R&D, #BAF468) or anti-human gp130 biotinylated antibody (R&D, #BAF228), both 1:1000 in 10% SmartBlock PBS-T, was added and incubated for 1 hour at RT. […] Then, the fluorescence was measured with a plate reader at 535/595 nm. […] Efficacy was calculated as [(signal measured at lowest antibody concentration−signal measured at the highest antibody concentration)×100] divided by (signal measured at lowest antibody concentration−signal measured in the absence of antibody at an IL11 concentration of 8.2E-11 [M]).
IgG converted antibodies were subjected to the experimental assay procedure described in Example 19 and IC50 [M], respectively efficacy (%) were calculated accordingly.

B1: TPP-18068 (antibody, mouse IgG1)
heavy: EVQLLESGGGLVQPGGSLRLSCAASGFTFSSYGMHWVRQAPGKGLEWVSVISYDGSYKYYADSVKGRFTISRDNSKNTLYLQMNSLRAEDTAVYYCAAGVPDYWGQGTLVTVSSAKTTPPSVYPLAPGSAAQTNSMVTLGCLVKGYFPEPVTVTWNSGSLSSGVHTFPAVLQSDLYTLSSSVTVPSSTWPSETVTCNVAHPASSTKVDKKIVPRDCGCKPCICTVPEVSSVFIFPPKPKDVLTITLTPKVTCVVVDISKDDPEVQFSWFVDDVEVHTAQTQPREEQFNSTFRSVSELPIMHQDWLNGKEFKCRVNSAAFPAPIEKTISKTKGRPKAPQVYTIPPPKEQMAKDKVSLTCMITDFFPEDITVEWQWNGQPAENYKNTQPIMDTDGSYFVYSKLNVQKSNWEAGNTFTCSVLHEGLHNHHTEKSLSHSPGK
light: QSVLTQPPSASGTPGQRVTISCTGSSSNIGAGYDVHWYQQLPGTAPKLLIYSNNERPSGVPDRFSGSKSGTSASLAISGLRSEDEADYYCAAWDDSLNGPVFGGGTKLTVLGQPKSSPSVTLFPPSSEELETNKATLVCTITDFYPGVVTVDWKVDGTPVTQGMETTQPSKQSNNKYMASSYLTLTARAWERHSSYSCQVTHEGHTVEKSLSRADCS
notes: mIgG1, Lambda
Usually IC50 stands for the concentration at which inhibition is half-maximal. In turn, B1 returned an IC50 in the test with human IL-11 [1] of 12 nM.

B2: TPP-18068 (antibody, mouse IgG1)
heavy: B1 heavy
light: B1 light
notes: mIgG1, Lambda
In the case of B2, the IC50 with human IL-11 [2] is 1700 nM.

B3: TPP-18087 (antibody, mouse IgG1, V domains shown)
VH: EVQLLESGGGLVQPGGSLRLSCAASGFTFSHYDMNWLRQAPGKGLEWVGVISYDGSNKFYADFVKGRFTISRDNSKNTLYLQMNSLRAEDTAVYYCARTPGSHFDYWGQGTLVTVSS
VL: QSVLTQPPSASGTPGQRVTISCSGSSSNIGNNAVNWYQQLPGTAPKLLIYYDDLLPSGVPDRFSGSKSGTSASLAISGLRSEDEADYYCSAWDDSLNGVVFGGGTKLTVLG
notes: mIgG1, Lambda
Turning to B3, the IC50 with human IL-11 [3] worked out at 1.5 nM.
